# Test results reported in IntAct's records for PubMed 19415803.
# B1: DNA polymerase III subunit tau (Bacillus subtilis), P09122 (parent)
# chain: MSYQALYRVFRPQRFEDVVGQEHITKTLQNALLQKKFSHAYLFSGPRGTGKTSAAKIFAKAVNCEHAPVDEPCNECAACKGITNGSISDVIEIDAASNNGVDEIRDIRDKVKFAPSAVTYKVYIIDEVHMLSIGAFNALLKTLEEPPEHCIFILATTEPHKIPLTIISRCQRFDFKRITSQAIVGRMNKIVDAEQLQVEEGSLEIIASAADGGMRDALSLLDQAISFSGDILKVEDALLITGAVSQLYIGKLAKSLHDKNVSDALETLNELLQQGKDPAKLIEDMIFYFRDMLLYKTAPGLEGVLEKVKVDETFRELSEQIPAQALYEMIDILNKSHQEMKWTNHPRIFFEVAVVKICQTSHQSAADLPEVDMLMKKIQQLEQEVERLKTTGIKAAAESPKKEAPRVPKGGKSNYKAPVGRIHEILKEATRPDLDLLRNSWGKLLAHLKQQNKVSHAALLNDSEPVAAGSAAFVLKFKYEIHCKMVAEDNNGVRTNLEQILESMLGKRMDLIGVPEAQWGKIREEFLEDHQQENEGSNEPAEEDPLIAEAKKLVGADLIEIKD
# partner: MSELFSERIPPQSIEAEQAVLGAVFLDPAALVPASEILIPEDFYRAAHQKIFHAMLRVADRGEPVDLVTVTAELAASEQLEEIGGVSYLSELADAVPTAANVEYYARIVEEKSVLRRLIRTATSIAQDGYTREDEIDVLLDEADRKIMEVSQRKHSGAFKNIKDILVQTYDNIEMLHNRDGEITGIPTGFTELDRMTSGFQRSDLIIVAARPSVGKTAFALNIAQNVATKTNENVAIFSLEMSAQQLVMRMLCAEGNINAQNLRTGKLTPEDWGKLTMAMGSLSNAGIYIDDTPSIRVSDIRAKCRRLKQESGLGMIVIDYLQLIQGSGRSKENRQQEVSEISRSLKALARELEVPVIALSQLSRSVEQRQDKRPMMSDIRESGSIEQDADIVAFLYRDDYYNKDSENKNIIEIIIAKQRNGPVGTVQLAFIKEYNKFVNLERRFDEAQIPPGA
# Variants of: B1
# Details: with dnab_geose dnaB
row,Variant,effect of a mutation on the interaction
1,F473L,decreasing interaction strength
2,C483S,decreasing interaction strength
3,D510S,decreasing interaction strength
4,A550V,decreasing interaction strength
5,W519R,decreasing interaction strength
6,G492R,decreasing interaction strength
